Experimental findings from patent US20040229289A1, “Antigen binding peptides (abtides) from peptide libraries” (Cytogen Corporation, priority 1994, published 2004) are described below.

The chains are these.
T1: PEM peptide (human)
T1 peptide: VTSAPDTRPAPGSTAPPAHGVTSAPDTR

In one test the target is T1, PEM peptide. Description: phage ELISA on PEM.
Details: not given
In general terms: In an ELISA, binding on a coated surface is turned into a signal by an enzyme label.
For the molecule GSSGWKVKHRCGGPGTLQRPGCGNLPLGHTFPPTRGGSHMEGA [E84], the binding result is on record as “binds”.
In the case of EALVCRGKPPWSGPAGLLWQGCGTGPVSRTFTSAQGRSRNKTS [E88], the binding result is “binds”.
Consider VSTGWSGTPRWCAPGGKQGSGCGNGPRWTTLTPDLGGTRKYGP [E4], for which the binding result is on record as “binds”.
Take GPPVWSAKSRWTGTGVLNWPGCGKVPSCSTYTPSRDRSRKSDP [E16]: the binding result is listed as “binds”.
On to GSALLTSKGCVRGPGGLMRPGCGNDRLGKSSTYAHGGWIKTGP [E21], for which the binding result was “binds”.
With GPRSWMGQPRGSDAGSCKWAGCGDAPMWRASTPGHGGPPNRGS [E85], the binding result is given as “binds”.
Turning to GAPVWRGNRWCSDNGELERPGCGYGPRFNILPPGRGNSRKPSP [E73], the binding result is listed as “binds”.
With GAPLWCEKLSGTGSGGFKWPGCGSGPTYNTFTPARVGSDNKWP [E7], the binding result is given as “binds”.
Turning to GSPVWSGDNRWRGSSPLKRPGCGNGAKCNTLKDNRKDSRKTKH [E33], the binding result is reported as “binds”.
On to GSPVWMGSTRWTGHGWFRSQGCGNVPRTNSCAPAGKDSQNKGP [E65], for which the binding result is “binds”.

Another test has as its target T2, PEM (Homo sapiens, UniProt P15941).
T2 construct: made in house; host or cells: chemical peptide synthesis
Nature of the test: ELISA of phage from the MP-1 saturation mutagenesis library for binding to PEM. Particulars: phage-displayed abtide from MP-1 saturation mutagenesis library. As to the method: A saturation mutagenesis library based on one of the PEM abtides, MP-1, was constructed. Nucleotide sequences encoding the MP-1 abtide were synthesized using a doping scheme similar to that described in Section 5.3 whereby each nucleotide was contaminated with 9% of each of the other 3 nucleotides (e.g. G=73% G, 9% A, 9% T, 9° C.). The resulting mutagenic oligonucleotides were used to construct a library by TSAR library methods described above (see FIG. 13).
The resulting library was screened to identify phage expressing abtides capable of binding to PEM. The binding of isolated phage to PEM was confirmed by an ELISA assay.
Regarding “GPPVWSAKSRWTGTGVLNWPGCGKVPSCSTYTPSRDRSRKSDP (phage displayed) [E16]”, the “binding of isolated phage to PEM (ELISA)” value is listed as “Positive Binding Sequences”.
For “GEPVWCRHSGGRVQGGLDWLGCGDGPLRYTVTPARGGPSKHGP [E64]”, the “binding of isolated phage to PEM (ELISA)” value is given as “Positive Binding Sequences”.
Take “GAPVWRGNPRWRGPGGFKWPGCGNGPMCNTFTPARGGSRNNGP [MP-1]”: the “binding of isolated phage to PEM (ELISA)” value is listed as “Positive Binding Sequences”.
On to “RSAVSEGKPREIVPGGCMWPGCGNGRKSNTLTHGPEQFQEIEP (phage displayed) [E15]”, for which the “binding of isolated phage to PEM (ELISA)” value was “Negative Binding Sequences”.
Take “ADPVCSRKPDGGGLRGLRWPGCGKGPILYNVTAARGGSRNNGP [E70]”: the “binding of isolated phage to PEM (ELISA)” value is “Positive Binding Sequences”.
Consider “GDPECRGKPRGRWTGSLACTGCGNGPNSKICTRARGVSRNKGP [E60]”, for which the “binding of isolated phage to PEM (ELISA)” value was “Negative Binding Sequences”.
Same read-out and setting: to “G PQGSEHQCCSGHWGLKFPGCGNGPICNNFTALRGASRKNGP (GPQGSEHQCCSGHWGLKFPGCGNGPICNNFTALRGASRKNGP) [E62]” belongs “Positive Binding Sequences”; to “GSALLTSKGCVRGPGGLMRPGCGNDRLGKSSTYAHGGWIKTGP (phage displayed) [E21]”, “Positive Binding Sequences”.
Same read-out and setting: the same measure for “REPVVGGKPWCRGPGGLRWRGCGKSQFDKIITLSRDNRRDKRP [E83]”: “Negative Binding Sequences”; for “GSPVWMGSTRWTGHGWFRSQGCGNVPRTNSCAPAGKDSQNKGP [E65]”: “Positive Binding Sequences”; for “GLSLVRGDSWGSGAGGWKRHGCGHGPMYNPQTPARGGSCTRNT [E66]”: “Positive Binding Sequences”.
Still for that read-out and setting: to “GAPLWQGDPADEVLGGSMIPGCGIGALSQTFTPTPGGSRKNVT (phage displayed) [E37]” belongs “Negative Binding Sequences”.
Turning to “EALVCRGKPPWSGPAGLLWQGCGTGPVSRTFTSAQGRSRNKTS [E88]”, the “binding of isolated phage to PEM (ELISA)” value is “Positive Binding Sequences”.
Same read-out and setting: to “AGRELRQDEGEGGAGADVARLREGPICSTFTPARGGSCPSGL (phage displayed) [E43]” belongs “Negative Binding Sequences”.
On to “G PLLPGEAAVHGARGLMRSGCGNGPTWNRLTAACRDSRNKGP (GPLLPGEAAVHGARGLMRSGCGNGPTWNRLTAACRDSRNKGP; phage displayed; extra N-terminal G) [E44]”, for which the “binding of isolated phage to PEM (ELISA)” value was “Positive Binding Sequences”.
As for “GSPVWSGDNRWRGSSPLKRPGCGNGAKCNTLKDNRKDSRKTKH (phage displayed) [E33]”, the “binding of isolated phage to PEM (ELISA)” value is given as “Positive Binding Sequences”.
Still for that read-out and setting: to “GTRVPPGFALRGGRDGLSWAGCGKAPISKTYTSARGRSRKKGS (phage displayed) [E3]” belongs “Negative Binding Sequences”; to “GSSGWKVKHRCGGPGTLQRPGCGNLPLGHTFPPTRGGSHMEGA [E84]”, “Positive Binding Sequences”.
Consider “STPGCSGYSGSGDPRCLTCTACGNGHTRKTLTPAHGRSTHKEP [E72]”, for which the “binding of isolated phage to PEM (ELISA)” value is listed as “Negative Binding Sequences”.
The same measure, in the same setting: the same measure for “GAPVVGDILWCSGARGAKWPGCGKGPTNKTFSHSRGGTQKSGL [E90]”: “Positive Binding Sequences”; for “VSTGWSGTPRWCAPGGKQGSGCGNGPRWTTLTPDLGGTRKYGP (phage displayed) [E4]”: “Positive Binding Sequences”; for “GAHGYKNGSTCTGLGGWRCRGCGKGAMCNNPSPAGGAYHNQGP (phage displayed) [E29]”: “Positive Binding Sequences”.
For “GPRSWMGQPRGSDAGSCKWAGCGDAPMWRASTPGHGGPPNRGS [E85]”, the “binding of isolated phage to PEM (ELISA)” value is “Positive Binding Sequences”.
Regarding “GQPECRITSGCCGTDGNKWLGCGKVDMCNTLNPAVGCHGTNGS (phage displayed) [E34]”, the “binding of isolated phage to PEM (ELISA)” value was “Negative Binding Sequences”.
In the case of “GAPVWRGNRWCSDNGELERPGCGYGPRFNILPPGRGNSRKPSP [E73]”, the “binding of isolated phage to PEM (ELISA)” value is recorded as “Positive Binding Sequences”.
With “GAPLWCEKLSGTGSGGFKWPGCGSGPTYNTFTPARVGSDNKWP [E7]”, the “binding of isolated phage to PEM (ELISA)” value is reported as “Positive Binding Sequences”.
Consider “SSGVGNGKPRSWAPDALNGGCGNIQFANTITPDRGGSCNQTL (phage displayed) [E24]”, for which the “binding of isolated phage to PEM (ELISA)” value is “Negative Binding Sequences”.
Regarding “VSRAWSGKPRLMGSHGLNCPGCGKGHSGIMFIPDPAGSANTPP [E67]”, the “binding of isolated phage to PEM (ELISA)” value is on record as “Positive Binding Sequences”.
Still for that read-out and setting: to “GSSVCGGQPSGRGFGGLPGPGCGNGPTSNTLTSARGGFPNKGL (phage displayed) [E27]” belongs “Negative Binding Sequences”.
Take “QARVSMAISCRSGPSDLMHQGCGYGPRCNPDTTDSGGSHTNTP (phage displayed) [E49]”: the “binding of isolated phage to PEM (ELISA)” value is given as “Negative Binding Sequences”.
As to “CAPMWSGKPPWCVGGGVKFRGCGNRPDCNIITPRLVESRDKAL [E68]”, the “binding of isolated phage to PEM (ELISA)” value is on record as “Positive Binding Sequences”.
On to “GAPVSRCKPACGGFWGVNWPGCGNASMCKTFTNGHGVSSDNGH (phage displayed) [E22]”, for which the “binding of isolated phage to PEM (ELISA)” value is given as “Positive Binding Sequences”.
